The record followed here is patent publication US20040014191A1, “Nitroreductase enzymes” (priority 1999, published 2004).

The subject of series [1] is Cc1cc2nc3c(=O)[nH]c(=O)nc-3n(C[C@H](O)[C@H](O)[C@H](O)COP(=O)(O)OP(=O)(O)OC[C@H]3O[C@@H](n4cnc5c(N)ncnc54)[C@H](O)[C@@H]3O)c2cc1C. Nature of the series: purified protein, by the assay type.
Procedure: Quantitative assays using CB 1954 or SN 23862 as substrate were carried out at 37° C. by HPLC as previously described (2) (3). […] Incubation times varied according to the enzyme activity being studied.
Assays were carried out spectrophotometrically at 37° C. in 10 mM Tris pH 7.5 using cytochrome c as terminal electron acceptor.
Series [2] can be described thus: Nitroreductase enzyme assay with SN 23862 as substrate (HPLC). In kind it is biochemical. Particulars: for SN 23862 acitvity: Table 6; for SN23862 (activity): Table 2, recombinant B. subtilis enzymes, crude lysates.
The format of series [3] is biochemical. The note with it: Table 6.
Series [4] in a line: Nitroreductase enzyme assay with CB 1954 as substrate (HPLC). In kind it is biochemical. Particulars: for CB1954 (product formed / activity): Table 2, recombinant B. subtilis enzymes, crude lysates.
Series [5] is classed as biochemical. The note with it: Table 6. This is another data set of the same source.
Series [6] deals with recombinant enzymes (antigens). Nature of the series: Polyclonal antisera titres by ELISA. In kind it is binding. Particulars: rabbit antiserum. On the procedure:
Polyclonal antisera were raised against recombinant enzymes by immunising rabbits with […] of protein in 50% PBS:50% Freund's complete adjuvant, total volume 400 μl. Blood was collected by ear bleed after 6-8 weeks and again 10 days after a booster immunisation of protein, and titre assessed by ELISA. 96-well plates were coated with 1 μg ml^−1 of the proteins and blocked with 10% v/v foetal calf serum (FCS), antibodies were diluted in assay buffer (1% FCS) and applied in doubling dilutions across the plate from 1 in 100 to 1 in 51 200 or 1 in 150 to 1 in 76 800. A secondary antibody conjugated with HRP (dilution 1 in 10 000) was used to develop the assay with 3,3′,5,5′-tetramethylbenzidine (TMB) as substrate.
Antisera to E. coli B NfnB and six novel proteins (Haemophilus influenzae and Campylobacter jejuni NfnB homologues, YdgI and YodC of Bacillus subtilis, YwrO of B. amyloliquefaciens and Porphyromonas gingivalis YwrO homologue) have been raised in rabbits by inoculation with 100 μg of protein in PBS+ Freund's complete adjuvant. Titres were assessed by ELISA after 8 weeks, and 10 days after a booster inoculation of a further 100 μg of protein per rabbit. Pre-immune sera were also tested.
96 well plates were coated overnight at 4° C. with the antigens at 1 μg/ml. After washing and blocking antisera were added in doubling dilutions in an appropriate range across the plates. The plates were developed using goat anti-rabbit IgG peroxidase conjugate with TMB as substrate, and read at 450 nm.
In general terms: An ELISA detects its analyte on a solid surface through an enzyme-linked reagent.

The mark [7] stands for this setting: other: cofactor NADH, 37° C., 10 mM Tris pH 7.5, pH 7.5.

Read-outs that look alike come from different tables or passages of the source.

Take “YodC (Bacillus subtilis subsp. subtilis str. 168)”: in series [1] (setting [7]), the Michaelis constant (Km) (as a rule, the substrate concentration at which the rate is half of its maximum) came to 0.6 ± 0.1 µM; the kcat (as a rule, the number of substrate molecules converted per active site and unit of time at saturation) came out at 269 ± 4.9 s⁻¹; the kcat/Km (commonly the second-order rate constant that governs catalysis at low substrate concentration) came out at 4.48e+08 M⁻¹ s⁻¹. Further, in series [1] (other: cofactor NADPH, 37.0 °C), the Km stood at 2.4 ± 0.3 µM, the kcat was determined as 283 ± 7.4 s⁻¹ and the catalytic efficiency (kcat/Km) came out at 1.18e+08 M⁻¹ s⁻¹.

B1: Synechocystis: nitroreductase from Synechocystis sp PCC 6803, SEQ ID NO: 19 (protein)
chain: MDTFDAIYQRRSVKHFDPDHRLTAEEERKLHEAAIQAPTSFNIQLWRFLIIRDPQLRQTIREKYGNQAQMTDASLLILVAADVNAWDKDPARYWRNAPREVANYLVGAIAFYGGKPQLQRDEAQRSIGMAMQNLMLAAKAMGYDSCPMIGFDLQKVAELVKLPADYAIGPMVAIGKRTEDARAKGGQTPLEELVWENSFA
modifications: Synechocystis PCC6803
Regarding B1, in series [2], the “activity with SN23862” value is given as “show activity with SN23862” and the “SN 23862 acitvity” value is recorded as “Weak”. Moreover, in series [3], the Cofactor entry is given as “NADPH”. For the same molecule, in series [4], the “reduction of CB1954: activity and product formed” value (“reduction of CB1954” below) is on record as “only the relatively non-toxic 2HX derivative”. For the same molecule, in series [4] (Table 6, recombinant enzymes), the “CB 1954 product” value is given as 2HX. Moreover, in series [5], the Azo-Reductase entry is given as “No”.

B2: YdeQ: nitroreductase from B. subtilis, SEQ ID NO: 8 (protein, listed as Bacillus subtilis)
chain: MDHMKTLVLVVHPNIESSRINKKWKEAVLSEPDVTVHDLYEKYRDQPIDVEFEQQQLLAHDRIVFQFPLYWYSSPPLLKQWFDEVFTFGWAHGPGGNKLKGKEWVTAMSIGSPEHSYQAGGYNLFSISELTKPFQASAHLVGMTYLPSFAEYRANTISDQEIAESANRYVKHITNIELNPKVRLQRYLKQLESVDLT
With B2, in series [2], the “activity with SN23862” value is reported as “no activity with prodrugs” and the “SN23862 (activity)” value was “inactive”. Besides, in series [4], the “reduction of CB1954” value is “no activity with prodrugs”; the “CB1954 (product formed / activity)” value is “inactive”.

B3: H. pylori: nitroreductase from Helicobacter pylori, SEQ ID NO: 29 (protein, listed as Helicobacter pylori)
chain: MKFLDQEKRRQLLNERHSCKMFDSHYEFSSEELEEIAEIARLSPSSYNTQPWHFVMVTNKDLKKQIAAHSYFNEEMIKSASALMVVCSLKPSELLPTGHYMQNLYPESYKVRVIPSFAQMLGVRFNHSMQKLESYILEQCYIAVGQICMGVSLMGLDSCIIGGFDPLKVGEVLEERINKPKIACLIALGKRVAEASQKSRKSKVDAITWL
Turning to B3, the “activity with SN23862” value in series [2] is “weak activity with SN23862”. For the same molecule, the “SN 23862 acitvity” value in series [2] is given as “Weak”. Further, the Cofactor entry in series [3] is recorded as “NADPH”. In addition, in series [4] (Table 6, recombinant enzymes), the “CB 1954 product” value is recorded as 4 > 2HX. Also, the “reduction of CB1954” value in series [4] (listed as H. pylori NfnB homologue) is “form the 4HX reduction product of CB1954”; in series [4] (listed as Helicobacter pylori enzyme) it was “mixture of the 2 and 4HX”. For the same molecule, the Azo-Reductase entry in series [5] is given as “No”.

B4: E. coli BNfnB (protein)
chain: MDIISVALKRHSTKAFDASKKLTPEQAEQIKTLLQYSPSSTNSQPWHFIVASTEEGKARVAKSAAGNYVFNERKMLDASHVVVFCAKTAMDDVWLKLVVDQEDADGRFATPEAKAANDKGRKFFADMHRKDLHDDAEWMAKQVYLNVGNFLLGVAALGLDAVPIEGFDAAILDAEFGLKEKGYTSLVVVPVGHHSVEDFNATLPKSRLPQNITLTEV
Regarding B4, the Post-boost titre in series [6] (10 days after booster) is 11000. Moreover, in series [6] (after 8 weeks), the “Pre-boost titre (50%)” value was found to be 1300.

B5: Bs YwrO: nitroreductase from B. subtilis, SEQ ID NO: 4 (protein, listed as Bacillus subtilis)
chain: MKILVLAVHPHMETSVVNKAWAEELSKHDNITVRDLYKEYPDEAIDVAKEQQLCEEYDRIVFQFPLYWYSSPPLLKKWQDLVLTYGWAFGSEGNALHGKELMLAVSTGSEAEKYQAGGANHYSISELLKPFQATSNLIGMKYLPPYVFYGVNYAAAEDISHSAKRLAEYIQQPFV
For B5, in series [2], the “activity with SN23862” value is “inactive with either CB 1954 or SN 23862” and the “SN23862 (activity)” value was “inactive”. Moreover, the “activity with SN23862” value in series [2] (listed as B. subtilis YwrO) is “inactive against SN23862”. In series [4], the “reduction of CB1954” value was “inactive with either CB 1954 or SN 23862”; the “CB1954 (product formed / activity)” value was found to be 4HX. In series [4] (listed as B. subtilis YwrO), the “reduction of CB1954” value is reported as “converts CB1954 to the 4HX derivative alone”.

B6: Rat DTD: rat DT-diaphorase enzyme (protein, UniProt P05982 2-274, looked up)
NAD(P)H dehydrogenase …: AVRRALIVLAHAERTSFNYAMKEAAVEALKKKGWEVVESDLYAMNFNPLISRNDITGEPKDSENFQYPVESSLAYKEGRLSPDIVAEQKKLEAADLVIFQFPLYWFGVPAILKGWFERVLVAGFAYTYATMYDKGPFQNKKTLLSITTGGSGSMYSLQGVHGDMNVILWPIQSGILRFCGFQVLEPQLVYSIGHTPPDARVQVLEGWKKRLETVWEESPLYFAPSSLFDLNFQAGFLLKKEVQEEQKKNKFGLSVGHHLGKSIPADNQIKARK
As to B6, in series [2] (Table 1), the “SN23862 Km” value was “inactive” and the SN23862 kcat entry was “inactive”. The molecule further yielded a CB1954 kcat in series [4] (Table 1) of 0.07 s⁻¹. Also, in series [4] (Table 1, purified enzymes), the “CB 1954 product” value amounted to 4HX.

B7: YrkL: nitroreductase from B. subtilis, SEQ ID NO: 6 (protein, listed as Bacillus subtilis)
chain: MKTLVIVIHPNLETSVVNKTWMNRLKQEKDITVHDLYGEYPNFIIDVEKEQQLLLDHERIVFQFPMYWYSSPALLKQWEDDVLTHGWAYGTGGTKLHGKELLLAISSGAQESDYQAGGEYNITISELIRPFQVTANYIGMRFLPAFTQYGTLHLSKEDVKNSAERLVDYLKAEH
For the molecule B7, in series [2], the “activity with SN23862” value is listed as “no activity” and the “SN23862 (activity)” value is “inactive”. In addition, in series [4], the “reduction of CB1954” value is “no activity”; the “CB1954 (product formed / activity)” value is “inactive”.
